pKd: −log10 of the molar value.
What was measured:
[1] = target: Human myeloma IgE (human) (UniProt P01854); test: SPR (BIAcore 2000, 25 C): GST-EndoS (E235Q) amine-coupled to a CM5 chip, human myeloma IgE injected at 10-1.25 ug/ml; 1:1 Langmuir fit, KD from mean rate constants
[2] = target: Human IgE in whole blood of healthy volunteers (on basophils); test: cell-based or functional assay

| Substance | pKd [1] | CD203c+ cells among CD123+, HLA-DR- basophils after chicken anti-IgE stimulation of whole blood (FACS); untreated blood 83% [2] [%] |
| --- | --- | --- |
| GST-EndoS (E235Q), enzymatically inactive form of EndoS from Streptococcus pyogenes (from UniProt Q99Y92 37-995) (enzyme) | 6.88 |  |
| GST-EndoS (enzymatically active) (from UniProt Q99Y92 37-995) (enzyme) |  | 15 |

Source: patent publication US20140065128A1
